These results are taken from CN101309933A (MEDIMMUNE LLC, dated 2008).

Assay [1] has as its target T1, 小鼠EphA2 (expressed on cells) (mouse, UniProt Q03145 26-977).
T1 construct: whole, on cells; also called mouse EphA2; EphA2 on CT26, 4T1
As to the kind of experiment: flow cytometry on cell lines, 1 μg antibody, PE goat anti-human IgG. In general terms: A flow cytometer gives signals particle by particle.

Assay [2] deals with T2, 人EphA2 (expressed on cells) (human, UniProt P29317 24-976).
T2 construct: whole, on cells; also called human EphA2; EphA2 on PC3, HUVEC and other human cell lines
Described as above.

T1 sequence (Q03145 26-977): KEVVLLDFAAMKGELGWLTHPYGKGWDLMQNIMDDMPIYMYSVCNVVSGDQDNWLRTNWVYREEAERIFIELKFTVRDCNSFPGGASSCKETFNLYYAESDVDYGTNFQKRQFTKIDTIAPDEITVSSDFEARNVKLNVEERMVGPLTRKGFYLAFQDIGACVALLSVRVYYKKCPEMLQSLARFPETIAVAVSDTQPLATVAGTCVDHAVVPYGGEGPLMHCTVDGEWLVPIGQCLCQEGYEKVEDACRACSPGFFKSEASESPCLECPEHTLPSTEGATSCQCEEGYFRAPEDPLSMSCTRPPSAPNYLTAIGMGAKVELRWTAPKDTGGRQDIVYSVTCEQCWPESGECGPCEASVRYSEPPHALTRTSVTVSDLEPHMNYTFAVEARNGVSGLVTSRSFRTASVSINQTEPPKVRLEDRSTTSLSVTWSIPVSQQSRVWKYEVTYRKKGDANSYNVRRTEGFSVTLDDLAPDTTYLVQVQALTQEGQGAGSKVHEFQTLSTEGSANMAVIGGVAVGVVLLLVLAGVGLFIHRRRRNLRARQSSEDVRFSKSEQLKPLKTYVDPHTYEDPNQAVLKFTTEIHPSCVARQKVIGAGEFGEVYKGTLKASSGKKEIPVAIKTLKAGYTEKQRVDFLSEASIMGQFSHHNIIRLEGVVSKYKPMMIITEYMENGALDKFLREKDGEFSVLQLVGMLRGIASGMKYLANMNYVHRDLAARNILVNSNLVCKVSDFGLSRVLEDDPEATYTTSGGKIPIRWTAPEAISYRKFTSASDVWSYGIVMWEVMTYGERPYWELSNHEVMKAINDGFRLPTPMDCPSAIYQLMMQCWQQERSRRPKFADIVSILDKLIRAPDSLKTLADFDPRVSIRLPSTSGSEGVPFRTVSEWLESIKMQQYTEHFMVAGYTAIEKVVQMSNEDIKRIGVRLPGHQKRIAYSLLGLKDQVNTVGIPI
T2 sequence (P29317 24-976): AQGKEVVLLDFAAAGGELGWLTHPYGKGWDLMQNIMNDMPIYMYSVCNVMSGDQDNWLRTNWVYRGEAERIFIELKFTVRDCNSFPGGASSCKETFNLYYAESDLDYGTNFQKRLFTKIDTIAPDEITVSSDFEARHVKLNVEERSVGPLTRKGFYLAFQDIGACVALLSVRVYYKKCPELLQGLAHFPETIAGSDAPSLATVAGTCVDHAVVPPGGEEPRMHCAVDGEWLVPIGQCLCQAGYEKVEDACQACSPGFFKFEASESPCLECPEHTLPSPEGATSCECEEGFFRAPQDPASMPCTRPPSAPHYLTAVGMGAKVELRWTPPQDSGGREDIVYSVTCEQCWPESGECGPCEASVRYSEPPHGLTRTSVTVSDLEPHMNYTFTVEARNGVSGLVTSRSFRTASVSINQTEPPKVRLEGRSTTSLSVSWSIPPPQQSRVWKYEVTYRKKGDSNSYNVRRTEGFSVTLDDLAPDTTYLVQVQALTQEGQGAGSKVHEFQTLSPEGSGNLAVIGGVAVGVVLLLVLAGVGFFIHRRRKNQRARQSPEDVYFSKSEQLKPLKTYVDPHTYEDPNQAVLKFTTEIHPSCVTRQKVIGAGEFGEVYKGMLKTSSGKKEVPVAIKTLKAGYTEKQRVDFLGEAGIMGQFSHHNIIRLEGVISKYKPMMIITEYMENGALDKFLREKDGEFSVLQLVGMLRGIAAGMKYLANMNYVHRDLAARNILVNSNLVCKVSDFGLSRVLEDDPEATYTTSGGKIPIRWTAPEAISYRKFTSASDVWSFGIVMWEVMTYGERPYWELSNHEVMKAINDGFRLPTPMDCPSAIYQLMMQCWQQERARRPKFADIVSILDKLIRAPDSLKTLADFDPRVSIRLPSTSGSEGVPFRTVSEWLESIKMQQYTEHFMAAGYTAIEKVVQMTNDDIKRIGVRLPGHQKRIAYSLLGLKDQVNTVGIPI

B1: 抗-EphA2抗体1H3 (antibody, V domains shown)
VH: EVQLLESGGGLVQPGGSLRLSCAASGFTFSMYAMRWVRQAPGKGLEWVSVIGPSGGWTPYADSVKGRFTISRDNSKNTLYLQMNSLRAEDTAVYYCARDRGIYGMDVWGQGTTVTVSS
VL: DIQMTQSPSFLSASVGDRVTITCRASQGISSYLAWYQQKPGKAPKLLIYAASTLQSGVPSRFSGSGSGTEFTLTISSLQPEDFATYYCLELNNYPFTFGLGTKVHIK
Regarding B1, the binding result in assay [1] and in assay [2] was “binds” throughout.

B2: 抗-EphA2抗体3F2 (antibody, V domains shown)
VH: EVQLVESGGGVVRPGGSLRLSCAASGFTVSDYSMNWVRQAPGKGLEWIGFIRNKANAYTTEYSASVKGRFTISRDDSKNTLYLQMNSLKTEDTAVYYCTTYPRYHAMDSWGQGTMVTVSS
VL: AIQLTQSPSSLSASVGDRVTITCRASQSISNNLHWYLQKPGQSPQLLIYYGFQSISGVPSRFSGSGSGTDFTLTISSLQPEDFATYYCQQANSWPLTFGGGTKLEIK
In the case of B2, the binding result in assay [1] and in assay [2] was “binds” in each case.
